{"source": "patent US20250043019A1", "about": "(Janssen / Centocor, published 2025)", "key": {"[1]": {"biological_target": "T1, human CD20 on the cell surface (human, UniProt P11836 1-297)", "T1 sequence (looked up)": "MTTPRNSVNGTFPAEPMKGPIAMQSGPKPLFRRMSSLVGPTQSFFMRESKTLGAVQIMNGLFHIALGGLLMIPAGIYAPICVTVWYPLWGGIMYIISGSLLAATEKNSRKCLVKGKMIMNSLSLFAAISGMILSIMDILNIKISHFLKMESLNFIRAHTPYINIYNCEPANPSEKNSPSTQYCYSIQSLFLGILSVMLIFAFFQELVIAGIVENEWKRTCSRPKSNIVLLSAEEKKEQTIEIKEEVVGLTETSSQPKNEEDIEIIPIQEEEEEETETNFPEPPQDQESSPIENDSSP", "assay": "cell-based or functional assay"}, "[2]": {"biological_target": "T2, human CD79b on the cell surface (human, UniProt P40259 29-229)", "T2 sequence": "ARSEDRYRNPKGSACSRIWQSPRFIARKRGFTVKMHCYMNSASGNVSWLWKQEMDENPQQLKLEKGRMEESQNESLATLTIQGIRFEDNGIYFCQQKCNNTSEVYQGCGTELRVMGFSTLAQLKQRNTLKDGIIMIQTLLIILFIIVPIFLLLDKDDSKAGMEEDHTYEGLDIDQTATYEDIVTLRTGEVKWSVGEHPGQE", "assay": "cell-based or functional assay"}, "[3]": {"biological_target": "T2, human CD79b on the cell surface", "assay": "cell-based or functional assay", "remark": "listed apart in the source"}, "[4]": {"biological_target": "T2, human CD79b on the cell surface", "assay": "flow cytometry, HBL-1 cells, 1 h 37 C; control row of Table 10, same value as Table 8", "experimental": "(§1) All cells were washed with BD stain buffer (BD Biosciences; Cat #554657), centrifuged at 1200 RPM for 3 minutes, with supernatant discarded. Cells were then stained for 20 minutes at 4° C. with BD stain buffer containing AlexaFluor 647 labeled anti-human IgG secondary antibody (Jackson Immuno; Cat #109-606-098) at a 1:200 dilution along with Aqua Fixable Live/Dead stain (Invitrogen; Cat #L34957) at a 1:400 dilution. All cells were washed with BD stain buffer (BD Biosciences; Cat #554657), centrifuged at 1200 RPM for 3 mins, with supernatant discarded. Cells were analyzed using Intellicyt (Sartorius) flow cytometer and mean fluorescent intensity (MFI) was generated using Forcyt software (Sartorius). MFI was graphed and EC50 values generated using GraphPad PRISM v.8. Dose response curves were generated by transforming the x axis values using the formula […]. Data was then graphed using non-linear regression curve fit analysis “log(agonist) vs. response-variable slope (four parameter)”."}, "[5]": {"biological_target": "T2, human CD79b on the cell surface", "assay": "flow cytometry, Carnaval cells, 1 h 37 C; control row of Table 10, same value as Table 8", "experimental": "as §1"}, "[6]": {"biological_target": "T2, human CD79b on the cell surface", "assay": "cell-based or functional assay", "remark": "listed apart in the source"}, "[7]": {"biological_target": "T2, human CD79b on the cell surface", "assay": "flow cytometry, HBL-1 cells, 1 h 37 C", "experimental": "as §1"}, "[8]": {"biological_target": "T2, human CD79b on the cell surface", "assay": "flow cytometry, Carnaval cells, 1 h 37 C", "experimental": "as §1"}, "[9]": {"biological_target": "T2, human CD79b on the cell surface", "assay": "cell-based or functional assay", "remark": "listed apart in the source"}, "[10]": {"biological_target": "T2, human CD79b on the cell surface", "assay": "cell-based or functional assay", "remark": "listed apart in the source"}, "[11]": {"biological_target": "T2, human CD79b on the cell surface", "assay": "cell-based or functional assay", "remark": "listed apart in the source"}, "[12]": {"biological_target": "T3, recombinant extracellular domain of human CD79b, long isoform (human, UniProt P40259 29-159)", "T3 construct": "also called hu CD79b long", "T3 sequence": "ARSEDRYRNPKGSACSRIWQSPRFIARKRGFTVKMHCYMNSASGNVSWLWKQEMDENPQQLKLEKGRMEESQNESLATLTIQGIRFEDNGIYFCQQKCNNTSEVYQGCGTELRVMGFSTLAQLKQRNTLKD", "assay": "SPR Biacore 8k, antibody captured by anti-Fc, 25 C", "experimental": "(§2) General Protocol for SPR Affinity Assessment: Affinity assessment of the bispecific trispecific constructs against human CD79b were measure using recombinantly expressed extracellular domain of CD79b short and long isoforms (CD9W7.001 and CD9W8.001, respectively) by Surface Plasmon Resonance (SPR) using a Biacore 8k SPR system (Biacore) at 25° C. in HBSP+ buffer. Cross-reactivity of the same antibody panel was also assessed against cyno and mouse antigens (CD9W1.001 and CD9W105.001, respectively). Briefly, a C1 sensor chip was immobilized with anti-human Fc (target immobilization levels of >400 RU) using vendor recommended amino coupling protocol. […] The association and dissociation phases were measured for 2 or 3 minutes and 30 minutes, respectively.\n(§3) The raw binding sensorgrams were processed using Biacore Insight software (Biacore) by double-referencing and the processed sensorgrams were analyzed for cross-reactivity and fitted to a 1:1 Langmuir model to obtain on-rates, off-rates and affinities."}, "[13]": {"biological_target": "T4, recombinant extracellular domain of human CD79b, short isoform (human, UniProt P40259 29-159)", "T4 chain": "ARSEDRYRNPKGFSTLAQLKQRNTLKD", "assay": "SPR Biacore 8k, antibody captured by anti-Fc, 25 C", "experimental": "as §2, §3"}, "[14]": {"biological_target": "T2, human CD79b on the cell surface", "assay": "cell-based or functional assay", "remark": "listed apart in the source"}, "[15]": {"biological_target": "T2, human CD79b on the cell surface", "assay": "cell-based or functional assay", "remark": "listed apart in the source"}, "[16]": {"biological_target": "T5, cynomolgus monkey CD79b antigen (cynomolgus monkey)", "T5 construct": "also called cyno CD79b; CD9W1.001", "assay": "SPR Biacore 8k, cyno CD79b injected up to 3000 nM", "experimental": "as §2, §3"}}}
{"binder": "C923B169 CD79bxCD20xCD3 trispecific antibody (CD9B374 Fab x C20B648 LH scFv x CD3B2030 N106A LH scFv) (other) heavy: QVQLQESGPGLVKPSETLSLTCSVSGASISSFYWSWIRQPADEGLEWIGRISPSGKTNYIPSLKSRIIMSLDASKNQFSLRLNSVTAADTAMYYCARGEYSGTYSYSFDVWGQGTMVTVSSASTKGPSVFPLAPSSKSTSGGTAALGCLVKDYFPEPVTVSWNSGALTSGVHTFPAVLQSSGLYSLSSVVTVPSSSLGTQTYICNVNHKPSNTKVDKKVEPKSCDKTHTCPPCPAPEAAGGPSVFLFPPKPKDTLMISRTPEVTCVVVSVSHEDPEVKFNWYVDGVEVHNAKTKPREEQYNSTYRVVSVLTVLHQDWLNGKEYKCKVSNKALPAPIEKTISKAKGQPREPQVYTLPPSREEMTKNQVSLSCAVKGFYPSDIAVEWESNGQPENNYKTTPPVLDSDGSFFLVSKLTVDKSRWQQGNVFSCSVMHEALHNRFTQKSLSLSPGK light: DIVMTQSPLSLSVTPGEPASISCRSSESLLDSEDGNTYLDWFLQKPGQSPQLLIYTLSYRASGVPDRFSGSGSDTDFTLHISSLEAEDVGLYYCMQRMEFPLTFGQGTKVEIKRTVAAPSVFIFPPSDEQLKSGTASVVCLLNNFYPREAKVQWKVDNALQSGNSQESVTEQDSKDSTYSLSSTLTLSKADYEKHKVYACEVTHQGLSSPVTKSFNRGEC EIVLTQSPATLSASPGERVTLSCSASSSVSYMNWYQQKPGQAPRRWIYDSSKLASGVPARFSGSGSGRDYTLTISSLEPEDFAVYYCQQWSRNPPTFGGGTKVEIKGGSEGKSSGSGSESKSTGGSQVQLVQSGAEVKKPGSSVKVSCKASGYTFTRSTMHWVKQAPGQGLEWIGYINPSSAYTNYNQKFQGRVTLTADKSTSTAYMELSSLRSEDTAVYYCASPQVHYDYAGFPYWGQGTLVTVSSEPKSSDKTHTCPPCPAPEAAGGPSVFLFPPKPKDTLMISRTPEVTCVVVSVSHEDPEVKFNWYVDGVEVHNAKTKPREEQYNSTYRVVSVLTVLHQDWLNGKEYKCKVSNKALPAPIEKTISKAKGQPREPQVYTLPPSREEMTKNQVSLWCLVKGFYPSDIAVEWESNGQPENNYKTTPPVLDSDGSFFLYSKLTVDKSRWQQGNVFSCSVMHEALHNHYTQKSLSLSPGKGGGGSGGGGSGGGGSGGGGSEIVLTQSPATLSLSPGERATLSCRASLSVSSMHWYQQKPGQAPRLLIYATSNLASGIPARFSGSGSGTDFTLTISSLEPEDFAVYYCQQWIFNPPTFGGGTKVEIKGGSEGKSSGSGSESKSTGGSQVQLVQSGAEVKKPGSSVKVSCKASGYTFSSYNMHWVRQAPGQGLEWMGAIYPGAGDTSYAQKFQGRVTITADESTSTAYMELSSLRSEDTAVYYCARSNYYGSSGWYFDVWGKGTTVTVSS", "values": [{"measurement": "EC50, long-term Incucyte cytotoxicity, K562 CD20", "setting": "[1]", "value": 4.08, "unit": "nM"}, {"measurement": "EC50, long-term Incucyte cytotoxicity, K562 CD79b", "setting": "[2]", "value": 1.04, "unit": "nM"}, {"measurement": "EC50, decrease of IL-10 secretion by CD79b mutant OCI-Ly10 cells (MSD assay)", "setting": "[3]", "value": 15.4, "unit": "nM"}]}
{"binder": "79C3B646 CD79bxCD3 bispecific antibody (bispecific antibody, human IgG1, lambda, L234A L235A, IgG1 bispecific; CD79b Fab arm plus CD3 scFv-Fc arm; also called 79C3B646 bsAb; CD9B330-N31S x CD3B2030-N106A) heavy: QVQLQQSGPGLVKPSQTLSLTCAISGDSVSSNSATWNWIRQSPSRGLEWLGRTYYRSKWYNDYTVSVKSRITINPDTSKNQFSLQLNSVTPEDTAVYYCTRVDIAFDYWGQGTLVTVSSASTKGPSVFPLAPSSKSTSGGTAALGCLVKDYFPEPVTVSWNSGALTSGVHTFPAVLQSSGLYSLSSVVTVPSSSLGTQTYICNVNHKPSNTKVDKKVEPKSCDKTHTCPPCPAPEAAGGPSVFLFPPKPKDTLMISRTPEVTCVVVSVSHEDPEVKFNWYVDGVEVHNAKTKPREEQYNSTYRVVSVLTVLHQDWLNGKEYKCKVSNKALPAPIEKTISKAKGQPREPQVYTLPPSREEMTKNQVSLSCAVKGFYPSDIAVEWESNGQPENNYKTTPPVLDSDGSFFLVSKLTVDKSRWQQGNVFSCSVMHEALHNRFTQKSLSLSPGK light: QTVVTQPPSVSEAPRQRVTISCSGSSSNIGNHGVNWYQQLPGKAPKLLIYNDDLLPSGVSDRFSGSTSGTSGSLAISGLQSEDEADYYCAAWDDSLNGVVFGGGTKLTVLGQPKAAPSVTLFPPSSEELQANKATLVCLISDFYPGAVTVAWKADSSPVKAGVETTTPSKQSNNKYAASSYLSLTPEQWKSHRSYSCQVTHEGSTVEKTVAPTECS EIVLTQSPATLSASPGERVTLSCSASSSVSYMNWYQQKPGQAPRRWIYDSSKLASGVPARFSGSGSGRDYTLTISSLEPEDFAVYYCQQWSRNPPTFGGGTKVEIKGGSEGKSSGSGSESKSTGGSQVQLVQSGAEVKKPGSSVKVSCKASGYTFTRSTMHWVKQAPGQGLEWIGYINPSSAYTNYNQKFQGRVTLTADKSTSTAYMELSSLRSEDTAVYYCASPQVHYDYAGFPYWGQGTLVTVSSEPKSSDKTHTCPPCPAPEAAGGPSVFLFPPKPKDTLMISRTPEVTCVVVSVSHEDPEVKFNWYVDGVEVHNAKTKPREEQYNSTYRVVSVLTVLHQDWLNGKEYKCKVSNKALPAPIEKTISKAKGQPREPQVYTLPPSREEMTKNQVSLWCLVKGFYPSDIAVEWESNGQPENNYKTTPPVLDSDGSFFLYSKLTVDKSRWQQGNVFSCSVMHEALHNHYTQKSLSLSPGK", "values": [{"measurement": "EC50", "setting": "[4]", "value": 97, "unit": "nM"}, {"measurement": "EC50", "setting": "[5]", "value": 44, "unit": "nM"}, {"measurement": "IC50, CARNAVAL killing (Incucyte)", "setting": "[6]", "value": 1.39, "unit": "nM"}, {"measurement": "EC50", "setting": "[7]", "value": 97, "unit": "nM"}, {"measurement": "EC50", "setting": "[8]", "value": 44, "unit": "nM"}, {"measurement": "Cmax (maximum cytotoxicity), donor 1", "setting": "[9]", "value": 9, "unit": "%"}, {"measurement": "Cmax (maximum cytotoxicity), donor 2", "setting": "[9]", "value": 14, "unit": "%"}, {"measurement": "Cmax (maximum cytotoxicity), donor 3", "setting": "[9]", "value": 35, "unit": "%"}, {"measurement": "EC50, autologous B-cell depletion, donor 1", "setting": "[9]", "value": 40, "unit": "nM"}, {"measurement": "EC50, autologous B-cell depletion, donor 2", "setting": "[9]", "value": 6, "unit": "nM"}, {"measurement": "EC50, autologous B-cell depletion, donor 3", "setting": "[9]", "value": 8, "unit": "nM"}, {"measurement": "IC50, Daudi killing (Incucyte)", "setting": "[10]", "value": 0.597, "unit": "nM"}, {"measurement": "IC50, T-cell killing of OCI-Ly10 (Incucyte)", "setting": "[11]", "value": 18.3, "unit": "nM"}, {"measurement": "Kd", "setting": "[12]", "value": 0.022, "unit": "nM"}, {"measurement": "Kd", "setting": "[13]", "value": 0.58, "unit": "nM"}, {"measurement": "IC50, T-cell killing of HBL-1 (Incucyte)", "setting": "[14]", "value": 0.257, "unit": "nM"}, {"measurement": "IC50, CARNAVAL killing, 72 h (FACS)", "setting": "[15]", "value": 0.29, "unit": "nM"}, {"measurement": "IC50, HBL-1 killing, 72 h (FACS)", "setting": "[15]", "value": 0.73, "unit": "nM"}, {"measurement": "IC50, OCI-LY10 killing, 72 h (FACS)", "setting": "[15]", "value": "> 100", "unit": "nM"}, {"measurement": "Kd", "setting": "[16]", "value": "> 3000", "unit": "nM"}]}
